In article PMC10546719:

Legend:
[1] = target: syndecan-1 (human (endogenous in Caco-2)) (UniProt P18827)
[2] = target: syndecan-1 (human (endogenous in Caco-2)) (UniProt P18827); remark: listed apart in the source

UniProt P18827, sequence (P18827 23-310): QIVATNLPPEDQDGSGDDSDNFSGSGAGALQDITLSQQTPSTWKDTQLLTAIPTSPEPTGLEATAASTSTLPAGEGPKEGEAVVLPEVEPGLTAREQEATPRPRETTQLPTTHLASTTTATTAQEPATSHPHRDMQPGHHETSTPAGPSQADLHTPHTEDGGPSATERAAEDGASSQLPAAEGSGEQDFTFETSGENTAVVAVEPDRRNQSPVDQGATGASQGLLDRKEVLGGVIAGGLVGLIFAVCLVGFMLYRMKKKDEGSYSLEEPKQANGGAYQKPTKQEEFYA

## recombinant Trichinella spiralis C-type lectin with GST tag (GST-rTsCTL) (natural protein)
[1]
  reduction of the rTsCTL (10 µg/mL) promotion of larval invasion of Caco-2 cells by 2.5-20 mM β-xyloside: 46.8%
[2]
  inhibition of the rTsCTL (10 µg/mL) promotion of larval invasion of Caco-2 cells by 2.5-20 µM Stattic: 49.3%
